Data on two substances can be found in paper PMC4859522.

For experiment [1], the target named is RSV clinical isolate A2001/2-20 fusion (F) protein (respiratory syncytial virus strain A2001/2-20). Nature of the experiment: co-IP; 293T cells co-transfected with EGFR and an RSV F construct; RIPA lysates 24 h after transfection; F precipitated with motavizumab on protein-A magnetic beads overnight at 4°C, washed in RIPA; blots for EGFR and RSV F, ratio of EGFR to F1.

In experiment [2] the target is Epidermal growth factor receptor (UniProt P00533).

Regarding “Epidermal growth factor receptor (from UniProt P00533 25-1210)”, the fold ratio of co-precipitated EGFR to F, against A2 F in experiment [1] was 2.8 fold.
For the substance “RSV clinical isolate A2001/2-20 fusion (F) protein (natural protein)”, in experiment [2], the ratio of p-EGFR to EGFR by Western blot in serum-starved HEp-2 cells 24 h after transfection with 2–20 F, against A2 F worked out at 4.45 fold.
